# Results from publication PMC4424398, “A Human Platelet Receptor Protein Microarray Identifies the High Affinity Immunoglobulin E Receptor Subunit α (FcεR1α) as an Activating Platelet Endothelium Aggregation Receptor 1 (PEAR1) Ligand* ^([image sbox.jpg])” (Molecular & Cellular Proteomics : MCP, 2015).
# T1: PEAR1 ectodomain, monomeric biotinylated bait (human, UniProt Q5VY43 21-755, biotin (on the biotinylatable peptide tag))
# T1 chain: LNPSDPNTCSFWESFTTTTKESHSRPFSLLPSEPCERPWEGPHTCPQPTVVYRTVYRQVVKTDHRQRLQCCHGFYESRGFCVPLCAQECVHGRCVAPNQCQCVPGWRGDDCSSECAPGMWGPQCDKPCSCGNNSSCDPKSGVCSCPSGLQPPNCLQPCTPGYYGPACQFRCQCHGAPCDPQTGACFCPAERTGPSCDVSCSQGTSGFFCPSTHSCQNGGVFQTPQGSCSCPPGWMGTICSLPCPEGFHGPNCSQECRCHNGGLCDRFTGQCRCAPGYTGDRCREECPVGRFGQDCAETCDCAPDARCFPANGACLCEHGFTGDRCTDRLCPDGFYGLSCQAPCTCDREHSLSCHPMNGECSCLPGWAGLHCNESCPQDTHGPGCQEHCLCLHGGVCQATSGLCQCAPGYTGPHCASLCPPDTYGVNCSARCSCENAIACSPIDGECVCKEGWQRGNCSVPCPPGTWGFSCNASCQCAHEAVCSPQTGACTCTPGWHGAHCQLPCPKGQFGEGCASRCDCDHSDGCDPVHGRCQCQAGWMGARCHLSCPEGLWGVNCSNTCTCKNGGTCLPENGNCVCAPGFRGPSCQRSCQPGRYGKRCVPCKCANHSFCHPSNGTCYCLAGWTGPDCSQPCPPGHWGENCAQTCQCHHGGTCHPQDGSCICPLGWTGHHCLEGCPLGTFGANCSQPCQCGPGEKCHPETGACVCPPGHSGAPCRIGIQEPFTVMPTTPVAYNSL
# T2: PEAR1 ectodomain, monomeric biotinylated bait (human, UniProt Q5VY43 21-755, biotin (on the biotinylatable peptide tag))
# T2 construct: human platelet endothelium aggregation receptor 1 (PEAR1), whole ectodomain; also called PEAR1 bait; immobilized PEAR1; source: HEK293E, transient transfection, purified (Ni2+-NTA via His6)
# T2 sequence (looked up): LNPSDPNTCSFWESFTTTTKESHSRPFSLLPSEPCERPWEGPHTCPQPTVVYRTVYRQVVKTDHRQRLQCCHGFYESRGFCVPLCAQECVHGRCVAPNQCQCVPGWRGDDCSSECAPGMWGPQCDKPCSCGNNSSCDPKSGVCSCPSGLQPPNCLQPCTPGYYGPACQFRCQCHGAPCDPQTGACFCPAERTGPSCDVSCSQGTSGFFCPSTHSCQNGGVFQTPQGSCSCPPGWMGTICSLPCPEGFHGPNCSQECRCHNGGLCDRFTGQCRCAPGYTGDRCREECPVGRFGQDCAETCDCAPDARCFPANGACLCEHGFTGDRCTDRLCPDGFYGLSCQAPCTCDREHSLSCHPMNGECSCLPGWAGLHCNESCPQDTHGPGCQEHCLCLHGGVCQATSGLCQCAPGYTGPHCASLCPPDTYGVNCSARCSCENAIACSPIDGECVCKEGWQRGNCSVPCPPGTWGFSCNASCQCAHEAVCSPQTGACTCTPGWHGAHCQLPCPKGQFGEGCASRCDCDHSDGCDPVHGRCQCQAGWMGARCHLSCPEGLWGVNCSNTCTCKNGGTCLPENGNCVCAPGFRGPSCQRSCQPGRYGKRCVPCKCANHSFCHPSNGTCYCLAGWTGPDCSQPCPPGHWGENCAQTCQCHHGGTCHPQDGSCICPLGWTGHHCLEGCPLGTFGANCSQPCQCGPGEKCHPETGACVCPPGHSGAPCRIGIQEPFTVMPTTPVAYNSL
# Assays:
# [1] = biological target: T1, PEAR1 ectodomain, monomeric …; test: SPR; kinetic analysis
# [2] = biological target: T2, PEAR1 ectodomain, monomeric …; test: SPR; Biacore T100; PEAR1 immobilised; seven serial dilutions of FcεR1α-Cd4-His6 injected at 100 μl/min; kinetic analysis, 1:1 binding model; conditions: both partners purified
# [3] = biological target: T2, PEAR1 ectodomain, monomeric …; test: SPR; Biacore T100; PEAR1 immobilised; gel-filtered monomeric FcεR1α-Cd4-His6 serially diluted and injected at 10 μl/min until equilibrium; reference-subtracted; equilibrium analysis; conditions: both partners purified
binder,measurement,setting,value
"FcεR1α-Cd4-His6, purified monomeric soluble protein (receptor, human, UniProt P12319 26-205, looked up, also called soluble FcεR1α-Cd4-His6; source: HEK293E, transient transfection, purified (His6), resolved by gel filtration just prior to use) VPQKPKVSLNPPWNRIFKGENVTLTCNGNNFFEVSSTKWFHNGSLSEETNSSLNIVNAKFEDSGEYKCQHQQVNESEPVYLEVFSDWLLLQASAEVVMEGQPLFLRCHGWRNWDVYKVIYYKDGEALKYWYENHNISITNATVEDSGTYYCTGKVWQLDYESEPLNITVIKAPREKYWLQ",koff,[1],0.0788 s⁻¹
same,stoichiometry N,[2],1
same,Kd,[3],27.4 ± 1.3 nM
